Data published in article PMC2275666 (The EMBO Journal, 2008).
Positions count from the first letter of the chain named.

Key:
Test in all cases: pull-down
6H–hTFIIEα E383A = target: T1, 6H–hTFIIEα E383A (human, UniProt P29083 1-439, E383A)
T1 sequence: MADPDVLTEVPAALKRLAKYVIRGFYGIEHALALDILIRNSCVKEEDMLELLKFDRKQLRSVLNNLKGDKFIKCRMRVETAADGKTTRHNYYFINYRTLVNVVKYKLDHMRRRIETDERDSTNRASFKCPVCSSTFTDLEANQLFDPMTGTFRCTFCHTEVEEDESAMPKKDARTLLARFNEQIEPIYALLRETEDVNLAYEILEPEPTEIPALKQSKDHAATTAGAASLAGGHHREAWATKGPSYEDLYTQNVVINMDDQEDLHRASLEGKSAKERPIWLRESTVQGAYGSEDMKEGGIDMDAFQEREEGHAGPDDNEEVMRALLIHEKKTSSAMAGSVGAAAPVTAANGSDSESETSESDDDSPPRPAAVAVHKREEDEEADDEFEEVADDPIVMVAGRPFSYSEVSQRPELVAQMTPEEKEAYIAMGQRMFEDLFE

6H–hTFIIEα V372A = target: T2, 6H–hTFIIEα V372A (human, UniProt P29083 1-439, V372A)
T2 sequence: T1 sequence with V372A, A383E

6H–hTFIIEα D393A = target: T3, 6H–hTFIIEα D393A (human, UniProt P29083 1-439, D393A)
T3 sequence: T1 sequence with A383E, D393A

6H–hTFIIEα V390A = target: T4, 6H–hTFIIEα V390A (human, UniProt P29083 1-439, V390A)
T4 sequence: T1 sequence with A383E, V390A

6H–hTFIIEα F387E = target: T5, 6H–hTFIIEα F387E (human, UniProt P29083 1-439, F387E)
T5 sequence: T1 sequence with A383E, F387E

Measured: binding result

B1: GST-tagged hTFIIEβ (natural protein)
chain: MDPSLLRERELFKKRALSTPVVEKRSASSESSSSSSKKKKTKVEHGGSSGSKQNSDHSNGSFNLKALSGSSGYKFGVLAKIVNYMKTRHQRGDTHPLTLDEILDETQHLDIGLKQKQWLMTEALVNNPKIEVIDGKYAFKPKYNVRDKKALLRLLDQHDQRGLGGILLEDIEEALPNSQKAVKALGDQILFVNRPDKKKILFFNDKSCQFSVDEEFQKLWRSVTVDSMDEEKIEEYLKRQGISSMQESGPKKVAPIQRRKKPASQKKRRFKTHNEHLAGVLKDYSDITSSK
binds: 6H–hTFIIEα E383A | 6H–hTFIIEα V372A | 6H–hTFIIEα D393A | 6H–hTFIIEα V390A | 6H–hTFIIEα F387E
